Data from article PMC7717681, “Biochemical and structural characterisation of a protozoan beta-carbonic anhydrase from Trichomonas vaginalis” (Journal of Enzyme Inhibition and Medicinal Chemistry, 2020).

Molecular target: the molecule itself
Experiment: SEC-MALS; SEC combined with static and dynamic light scattering (SEC-SLS/DLS, right-angle light scattering) and a SEC standard curve; Superdex 200 5/150, 50 mM NaH2PO4, 500 mM NaCl, pH 8, 20 °C; after His-tag removal

B1: beta-carbonic anhydrase from Trichomonas vaginalis (TvaCA1) (enzyme)
chain: MSQLELITSANQAFLEANPELTKLNKAPQRHIAIVTCMDTRLVNFAEDAIGVKRGEATVIKAAGNGIWTTGLSDIVVSLLVSIYELGVQEIFIMGHECCGMTHASTDSLGAQMLKSGIKPEDIEKFKSDLSKWVDDFKDPIDNIKNSVRCVRENPLIPKNIPIHGLLIHPDTGKVTTIINGY
notes: TvaCA1, beta-carbonic anhydrase of Trichomonas vaginalis, gene TVAG_005270, UniProt A2ENQ8; Zinc metalloenzyme; The His-tag was removed by thrombin at an LVPRGS site; also called β-CA from T. vaginalis; source: E. coli BL21 Star (DE3), purified (Ni2+-NTA, His-tag removed by thrombin, second Ni2+-NTA; SEC in addition for crystallisation); not shown: His6, N-terminal, cleaved
stoichiometry N: 2
